The target in this assay is T1, Myoglobin from Horse Heart (Sigma M-9267) (horse), P68082.
T1 chain: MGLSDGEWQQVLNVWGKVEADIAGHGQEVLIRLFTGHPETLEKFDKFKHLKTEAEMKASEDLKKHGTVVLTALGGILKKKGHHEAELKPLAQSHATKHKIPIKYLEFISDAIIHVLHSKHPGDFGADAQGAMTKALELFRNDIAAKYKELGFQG
The assay can be described thus: SDS-PAGE of the methanol precipitate. The settings on record: remark: other sources report otherwise.

The values below come from publication PMC6806390.

B1: Myoglobin from Horse Heart (Sigma M-9267), P68082 1-154 (natural protein)
chain: T1 chain
B1 displayed a stoichiometry N of 3.
